Assay results: PMC9371972, “Cryo-EM structure of the human CST–Polα/primase complex in a recruitment state” (Nature Structural & Molecular Biology, 2022)

Legend:
[1] = target: CTC1–STN1–TEN1 (CST) complex (human) (UniProt Q2NKJ3); assay: cryo-EM structure; CST and Polα/primase (PP^FL or PP^ΔN) mixed equimolar (1.5 μM each) with (GGTTAG)3 ssDNA, cross-linked by GraFix (glutaraldehyde, glycerol gradient), 20 mM HEPES pH 7.5, 150 mM NaCl, 10 mM MgCl2, 0.5 mM TCEP
His6-MBP-CTC1–STN1–TEN1 [2] = target: T1, His6-MBP-CTC1–STN1–TEN1 (human, UniProt Q2NKJ3 1-1217; Q9H668 1-368; Q86WV5 1-123, RED-tris-NTA second-generation dye on the His6 tag); assay: MST; binding event 2 (second site), independent experiment 3
T1 chain 1: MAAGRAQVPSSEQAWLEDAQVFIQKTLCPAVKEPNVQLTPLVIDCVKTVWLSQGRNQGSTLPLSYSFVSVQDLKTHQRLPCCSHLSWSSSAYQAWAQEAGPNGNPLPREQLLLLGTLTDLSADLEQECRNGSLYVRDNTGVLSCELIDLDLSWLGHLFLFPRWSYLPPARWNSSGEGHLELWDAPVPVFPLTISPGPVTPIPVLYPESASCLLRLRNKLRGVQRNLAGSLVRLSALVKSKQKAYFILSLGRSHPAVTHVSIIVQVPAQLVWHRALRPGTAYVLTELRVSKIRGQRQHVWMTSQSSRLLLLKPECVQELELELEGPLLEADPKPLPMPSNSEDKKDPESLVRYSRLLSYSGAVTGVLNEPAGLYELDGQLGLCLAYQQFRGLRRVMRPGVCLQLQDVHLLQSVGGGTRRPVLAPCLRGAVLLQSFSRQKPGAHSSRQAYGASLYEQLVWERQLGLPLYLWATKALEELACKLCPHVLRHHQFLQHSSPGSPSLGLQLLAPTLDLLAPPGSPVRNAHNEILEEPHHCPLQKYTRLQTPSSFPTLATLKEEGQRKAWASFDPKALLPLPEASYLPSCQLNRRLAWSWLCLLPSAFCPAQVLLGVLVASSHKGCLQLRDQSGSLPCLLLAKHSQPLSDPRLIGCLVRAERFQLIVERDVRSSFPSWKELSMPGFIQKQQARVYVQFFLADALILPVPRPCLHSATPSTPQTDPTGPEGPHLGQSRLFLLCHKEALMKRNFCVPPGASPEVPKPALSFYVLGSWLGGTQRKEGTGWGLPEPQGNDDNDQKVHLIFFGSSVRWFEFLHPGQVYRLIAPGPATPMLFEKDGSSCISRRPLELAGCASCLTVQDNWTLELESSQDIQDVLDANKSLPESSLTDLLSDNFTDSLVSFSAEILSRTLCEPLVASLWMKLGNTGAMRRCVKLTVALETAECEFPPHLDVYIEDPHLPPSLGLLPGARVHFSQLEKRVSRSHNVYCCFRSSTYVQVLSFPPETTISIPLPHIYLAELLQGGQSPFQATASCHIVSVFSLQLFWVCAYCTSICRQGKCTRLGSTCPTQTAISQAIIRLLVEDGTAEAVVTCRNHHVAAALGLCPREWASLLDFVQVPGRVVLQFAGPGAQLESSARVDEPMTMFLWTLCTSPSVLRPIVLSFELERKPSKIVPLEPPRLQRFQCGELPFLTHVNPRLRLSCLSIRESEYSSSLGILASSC
T1 chain 2: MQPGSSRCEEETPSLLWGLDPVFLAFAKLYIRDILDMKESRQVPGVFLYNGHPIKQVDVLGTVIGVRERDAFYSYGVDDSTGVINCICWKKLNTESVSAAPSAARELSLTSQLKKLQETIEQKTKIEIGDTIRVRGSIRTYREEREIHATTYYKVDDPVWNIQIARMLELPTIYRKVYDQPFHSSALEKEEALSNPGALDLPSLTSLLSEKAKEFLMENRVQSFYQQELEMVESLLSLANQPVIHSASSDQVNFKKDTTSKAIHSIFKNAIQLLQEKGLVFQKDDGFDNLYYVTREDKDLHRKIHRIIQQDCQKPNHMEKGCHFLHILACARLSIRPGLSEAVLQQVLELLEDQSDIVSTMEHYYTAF
T1 chain 3: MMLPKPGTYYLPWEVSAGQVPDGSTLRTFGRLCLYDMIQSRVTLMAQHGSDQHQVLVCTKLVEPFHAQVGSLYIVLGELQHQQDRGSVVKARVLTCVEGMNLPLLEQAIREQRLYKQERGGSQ

His6-MBP-CTC1–STN1–TEN1 [3] = target: T2, His6-MBP-CTC1–STN1–TEN1 (human, UniProt Q2NKJ3 1-1217; Q9H668 1-368; Q86WV5 1-123, RED-tris-NTA second-generation dye on the His6 tag); assay: MST; 50 nM RED-tris-NTA-labeled His6-MBP-CST with serial dilutions of unlabeled POLA1^CTD constructs; room temperature; 20 mM HEPES pH 7.5, 150 mM NaCl, 5 mM DTT, 0.05% Tween-20; CRL^WT data split into two binding events; conditions: both partners purified
T2 construct: human CTC1; human STN1; human TEN1; A PreScission site lies between MBP and CTC1; also called His6-MBP-CST; fluorescently labeled CST; source: Tni insect cells (baculovirus), purified (Ni-NTA, heparin, SEC; protease-cleavage step omitted); not shown: His6, N-terminal, kept; MBP, N-terminal, kept; copies: + +

His6-MBP-CTC1–STN1–TEN1 [4] = target: T1, His6-MBP-CTC1–STN1–TEN1; assay: MST; binding event 2 (second site), independent experiment 1
His6-MBP-CTC1–STN1–TEN1 [5] = target: T1, His6-MBP-CTC1–STN1–TEN1; assay: MST; binding event 2 (second site), independent experiment 2
[6] = target: T3, full-length Polα/primase (POLA1^FL/POLA2/PRIM1/PRIM2) (human, UniProt P09884 1-1462; Q14181 1-598; P49642 1-420; P49643 1-509); assay: SEC; purified proteins mixed (PP^FL and CST equimolar; CST with twofold molar excess of His6-MBP-POLA1^N), 1 h at 4 °C, HiLoad Superdex 200 16/600 PG, 20 mM HEPES pH 7.5, 150 mM NaCl, 0.5 mM TCEP, 5% glycerol; conditions: both partners purified
T3 construct: human POLA2; human PRIM1; human PRIM2; The methods describe no tag cleavage for this complex (PreSc site after MBP, TEV site after StrepII); also called PP^FL; DNA polymerase α–primase; source: Tni insect cells (baculovirus), purified (Ni-NTA, RESOURCE Q, SEC); copies: + + +
T3 sequence (Q14181 whole entry, chain 2 of 3): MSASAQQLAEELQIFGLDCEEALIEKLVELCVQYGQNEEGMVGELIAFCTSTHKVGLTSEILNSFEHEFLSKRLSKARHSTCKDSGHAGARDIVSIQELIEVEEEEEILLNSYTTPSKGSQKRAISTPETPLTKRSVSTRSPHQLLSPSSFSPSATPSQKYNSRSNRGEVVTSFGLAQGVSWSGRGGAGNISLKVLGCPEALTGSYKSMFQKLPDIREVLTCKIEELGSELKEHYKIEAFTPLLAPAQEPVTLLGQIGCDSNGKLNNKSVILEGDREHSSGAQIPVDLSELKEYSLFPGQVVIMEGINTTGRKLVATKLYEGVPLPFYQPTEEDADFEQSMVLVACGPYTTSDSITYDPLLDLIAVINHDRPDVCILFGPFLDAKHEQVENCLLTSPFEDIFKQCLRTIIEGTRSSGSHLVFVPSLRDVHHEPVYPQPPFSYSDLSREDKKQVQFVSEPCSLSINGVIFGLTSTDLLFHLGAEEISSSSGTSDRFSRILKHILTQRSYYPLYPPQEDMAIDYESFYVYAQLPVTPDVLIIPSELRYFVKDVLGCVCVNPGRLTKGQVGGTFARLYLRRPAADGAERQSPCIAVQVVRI
T3 sequence (P49642 whole entry, chain 3 of 3): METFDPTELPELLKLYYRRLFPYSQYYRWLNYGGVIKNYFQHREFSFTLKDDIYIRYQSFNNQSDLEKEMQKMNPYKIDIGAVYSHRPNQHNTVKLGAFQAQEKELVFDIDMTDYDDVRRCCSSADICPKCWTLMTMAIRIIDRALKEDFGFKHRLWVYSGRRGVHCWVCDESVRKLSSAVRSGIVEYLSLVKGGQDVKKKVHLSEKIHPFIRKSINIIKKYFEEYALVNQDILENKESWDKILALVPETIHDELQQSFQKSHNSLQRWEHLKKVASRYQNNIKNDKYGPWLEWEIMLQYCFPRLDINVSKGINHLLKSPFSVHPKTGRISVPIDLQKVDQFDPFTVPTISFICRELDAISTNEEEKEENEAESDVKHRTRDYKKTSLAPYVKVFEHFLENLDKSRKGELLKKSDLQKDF
T3 sequence (P49643 whole entry, chain 4 of 3): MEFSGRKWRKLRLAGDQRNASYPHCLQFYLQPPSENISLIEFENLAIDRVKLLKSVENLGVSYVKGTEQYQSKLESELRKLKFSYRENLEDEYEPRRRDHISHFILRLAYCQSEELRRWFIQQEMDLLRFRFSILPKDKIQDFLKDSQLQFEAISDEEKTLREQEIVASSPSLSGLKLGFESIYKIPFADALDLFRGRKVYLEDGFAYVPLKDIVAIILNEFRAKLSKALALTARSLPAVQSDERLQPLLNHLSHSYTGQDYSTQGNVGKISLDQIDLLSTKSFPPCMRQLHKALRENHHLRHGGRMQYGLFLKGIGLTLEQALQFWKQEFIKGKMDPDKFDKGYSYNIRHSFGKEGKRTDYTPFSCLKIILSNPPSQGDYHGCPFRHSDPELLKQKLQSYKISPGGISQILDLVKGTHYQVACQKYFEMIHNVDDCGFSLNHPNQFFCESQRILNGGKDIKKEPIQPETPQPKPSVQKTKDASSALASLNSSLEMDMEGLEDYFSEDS

His6-MBP-CTC1–STN1–TEN1 [7] = target: T1, His6-MBP-CTC1–STN1–TEN1; assay: MST; binding event 1, independent experiment 3
His6-MBP-CTC1–STN1–TEN1 [8] = target: T1, His6-MBP-CTC1–STN1–TEN1; assay: MST; binding event 1, independent experiment 1
His6-MBP-CTC1–STN1–TEN1 [9] = target: T1, His6-MBP-CTC1–STN1–TEN1; assay: MST; binding event 1, independent experiment 2

“full-length Polα/primase (POLA1^FL/POLA2/PRIM1/PRIM2), P09884 1-1462; Q14181 1-598; P49642 1-420; P49643 1-509” was tested, and the stoichiometry N [1] was 1.

B1: POLA1^CTD with the CRL swapped for the S. pombe short loop (domain or fragment, human | S. pombe)
chain: AQLTDEEKYRDCERFKCPCPTCGTENIYDNVFDGSGTDMEPSLYRCSNIDCKASPLTFTVQLSNKLIMDIRRFIKKYYDGWLICEEPTCRNRTRHLPLQFSRTGPLCPACMKATLQPEYSDKSLYTQLCFYRYIFQTTTGATKVLQDYRKLKNTAEQFLSRSGYSEVNLSKLFAGCAVKS
notes: short loop of the S. pombe POLA1 orthologue, in place of the human CRL (residues 1400-1424); also called CRL^(S. pombe); source: E. coli Rosetta(DE3), purified (Ni-NTA, Ulp1 cleavage, reverse Ni-NTA, SEC); not shown: His6, N-terminal, cleaved; Smt3, N-terminal, cleaved
B1 was tested, and the Kd (His6-MBP-CTC1–STN1–TEN1 [2]) was 77 µM, the “KD of binding event 2” value (His6-MBP-CTC1–STN1–TEN1 [3]) was ~88 µM and the Kd (His6-MBP-CTC1–STN1–TEN1 [4]) was 134 µM. It also gave a Kd (His6-MBP-CTC1–STN1–TEN1 [5]) of 75 µM.

B2: CTC1–STN1–TEN1 (CST) complex (complex, human)
chain 1: MAAGRAQVPSSEQAWLEDAQVFIQKTLCPAVKEPNVQLTPLVIDCVKTVWLSQGRNQGSTLPLSYSFVSVQDLKTHQRLPCCSHLSWSSSAYQAWAQEAGPNGNPLPREQLLLLGTLTDLSADLEQECRNGSLYVRDNTGVLSCELIDLDLSWLGHLFLFPRWSYLPPARWNSSGEGHLELWDAPVPVFPLTISPGPVTPIPVLYPESASCLLRLRNKLRGVQRNLAGSLVRLSALVKSKQKAYFILSLGRSHPAVTHVSIIVQVPAQLVWHRALRPGTAYVLTELRVSKIRGQRQHVWMTSQSSRLLLLKPECVQELELELEGPLLEADPKPLPMPSNSEDKKDPESLVRYSRLLSYSGAVTGVLNEPAGLYELDGQLGLCLAYQQFRGLRRVMRPGVCLQLQDVHLLQSVGGGTRRPVLAPCLRGAVLLQSFSRQKPGAHSSRQAYGASLYEQLVWERQLGLPLYLWATKALEELACKLCPHVLRHHQFLQHSSPGSPSLGLQLLAPTLDLLAPPGSPVRNAHNEILEEPHHCPLQKYTRLQTPSSFPTLATLKEEGQRKAWASFDPKALLPLPEASYLPSCQLNRRLAWSWLCLLPSAFCPAQVLLGVLVASSHKGCLQLRDQSGSLPCLLLAKHSQPLSDPRLIGCLVRAERFQLIVERDVRSSFPSWKELSMPGFIQKQQARVYVQFFLADALILPVPRPCLHSATPSTPQTDPTGPEGPHLGQSRLFLLCHKEALMKRNFCVPPGASPEVPKPALSFYVLGSWLGGTQRKEGTGWGLPEPQGNDDNDQKVHLIFFGSSVRWFEFLHPGQVYRLIAPGPATPMLFEKDGSSCISRRPLELAGCASCLTVQDNWTLELESSQDIQDVLDANKSLPESSLTDLLSDNFTDSLVSFSAEILSRTLCEPLVASLWMKLGNTGAMRRCVKLTVALETAECEFPPHLDVYIEDPHLPPSLGLLPGARVHFSQLEKRVSRSHNVYCCFRSSTYVQVLSFPPETTISIPLPHIYLAELLQGGQSPFQATASCHIVSVFSLQLFWVCAYCTSICRQGKCTRLGSTCPTQTAISQAIIRLLVEDGTAEAVVTCRNHHVAAALGLCPREWASLLDFVQVPGRVVLQFAGPGAQLESSARVDEPMTMFLWTLCTSPSVLRPIVLSFELERKPSKIVPLEPPRLQRFQCGELPFLTHVNPRLRLSCLSIRESEYSSSLGILASSC
chain 2: MQPGSSRCEEETPSLLWGLDPVFLAFAKLYIRDILDMKESRQVPGVFLYNGHPIKQVDVLGTVIGVRERDAFYSYGVDDSTGVINCICWKKLNTESVSAAPSAARELSLTSQLKKLQETIEQKTKIEIGDTIRVRGSIRTYREEREIHATTYYKVDDPVWNIQIARMLELPTIYRKVYDQPFHSSALEKEEALSNPGALDLPSLTSLLSEKAKEFLMENRVQSFYQQELEMVESLLSLANQPVIHSASSDQVNFKKDTTSKAIHSIFKNAIQLLQEKGLVFQKDDGFDNLYYVTREDKDLHRKIHRIIQQDCQKPNHMEKGCHFLHILACARLSIRPGLSEAVLQQVLELLEDQSDIVSTMEHYYTAF
chain 3: MMLPKPGTYYLPWEVSAGQVPDGSTLRTFGRLCLYDMIQSRVTLMAQHGSDQHQVLVCTKLVEPFHAQVGSLYIVLGELQHQQDRGSVVKARVLTCVEGMNLPLLEQAIREQRLYKQERGGSQ
notes: human CTC1; human STN1; human TEN1; Expressed from pBIG1a(His6-MBP-PreSc-CTC1/STN1/TEN1); tag removed with rhinovirus 3C protease; source: Tni insect cells (baculovirus), purified (Ni-NTA, 3C protease cleavage, heparin, SEC); not shown: His6, N-terminal, cleaved; MBP, N-terminal, cleaved; copies: + +
B2: binds [6].

B3: POLA1^CTD with the wild-type CRL (domain or fragment, human, UniProt P09884 1265-1462, looked up)
chain: AQLTDEEKYRDCERFKCPCPTCGTENIYDNVFDGSGTDMEPSLYRCSNIDCKASPLTFTVQLSNKLIMDIRRFIKKYYDGWLICEEPTCRNRTRHLPLQFSRTGPLCPACMKATLQPEYSDKSLYTQLCFYRYIFDAECALEKLTTDHEKDKLKKQFFTPKVLQDYRKLKNTAEQFLSRSGYSEVNLSKLFAGCAVKS
notes: also called CRL^WT; source: E. coli Rosetta(DE3), purified (Ni-NTA, Ulp1 cleavage, reverse Ni-NTA, SEC); not shown: His6, N-terminal, cleaved; Smt3, N-terminal, cleaved
In the case of B3, the Kd (His6-MBP-CTC1–STN1–TEN1 [2]) is reported as 156 µM, the “KD of binding event 1” value (His6-MBP-CTC1–STN1–TEN1 [3]) is reported as ~3.3 µM and the “KD of binding event 2” value (His6-MBP-CTC1–STN1–TEN1 [3]) is reported as ~122 µM. For the same molecule, the Kd (His6-MBP-CTC1–STN1–TEN1 [4]) was 56 µM, the Kd (His6-MBP-CTC1–STN1–TEN1 [7]) was 14 µM and the Kd (His6-MBP-CTC1–STN1–TEN1 [8]) was 1.4 µM. The Kd (His6-MBP-CTC1–STN1–TEN1 [5]) was 216 µM and the Kd (His6-MBP-CTC1–STN1–TEN1 [9]) was 13 µM.

B4: POLA1^CTD with the CRL swapped for a GGSGGS-linker (domain or fragment, human)
chain: AQLTDEEKYRDCERFKCPCPTCGTENIYDNVFDGSGTDMEPSLYRCSNIDCKASPLTFTVQLSNKLIMDIRRFIKKYYDGWLICEEPTCRNRTRHLPLQFSRTGPLCPACMKATLQPEYSDKSLYTQLCFYRYIFDAEGGSGGSTPKVLQDYRKLKNTAEQFLSRSGYSEVNLSKLFAGCAVKS
notes: linker in place of the CRL (residues 1403-1422); also called CRL^GGSGGS; source: E. coli Rosetta(DE3), purified (Ni-NTA, Ulp1 cleavage, reverse Ni-NTA, SEC); not shown: His6, N-terminal, cleaved; Smt3, N-terminal, cleaved
B4 was tested, and the Kd (His6-MBP-CTC1–STN1–TEN1 [2]) was 82 µM, the “KD of binding event 2” value (His6-MBP-CTC1–STN1–TEN1 [3]) was ~96 µM and the Kd (His6-MBP-CTC1–STN1–TEN1 [4]) was 133 µM. The Kd (His6-MBP-CTC1–STN1–TEN1 [5]) was 79 µM.
